Common to all, as to settings: both partners purified
Test [1] addresses T1, LSSmGFP-PRL-3.C104D (human, UniProt O75365 1-173, C104D).
T1 construct: full-length PRL-3 with C104D, joined to LSSmGFP at its N-terminus by a glycine/serine linker; also called FRET donor; source: E. coli BL21 Star DE3, purified (Ni-NTA, TEV cleavage, second Ni-NTA, Superdex 200); not shown: LSSmGFP, N-terminal, kept
Put plainly: co-IP; in vitro, purified proteins: HA-CBS or HA-CBS-mScarlet3 (2.5 μM) on HA-Tag magnetic beads; equimolar PRL-3 or LSSmGFP-PRL3.C104D with 1 mM TCEP, pre-incubated with 50 μM test compounds or DMSO; 25 mM Tris-HCl pH 7.4, 150 mM NaCl, 1% NP-40, 5% glycerol; room temperature.

Test [2] addresses T2, recombinant full-length human PRL-3 (human, UniProt O75365 1-173).
T2 construct: full-length human PRL-3 cloned into pSKB3 (modified pET-28b with a TEV site); also called purified PRL-3; non-fluorescent PRL-3; source: E. coli BL21 Star DE3, purified (Ni-NTA, TEV cleavage, second Ni-NTA, Superdex 200)
Described as above.

Test [3] has as its target T1, LSSmGFP-PRL-3.C104D. Put plainly: FRET or BRET; in vitro FRET of purified proteins, LSSmGFP-PRL-3 C104D with increasing concentrations of HA-CBS-mScarlet3; excitation 400 nm, emission 600 nm.

T1 sequence (O75365 whole entry C104D): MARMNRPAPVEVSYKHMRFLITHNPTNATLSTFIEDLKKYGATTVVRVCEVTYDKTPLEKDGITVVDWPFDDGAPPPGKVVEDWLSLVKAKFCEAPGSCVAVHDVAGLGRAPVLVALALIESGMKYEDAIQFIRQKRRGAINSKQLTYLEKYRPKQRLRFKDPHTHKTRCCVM
T2 sequence (O75365 whole entry): as the sequence (O75365 whole entry C104D) above, with D104C counted along it

B1: HA-CBS (CBS domain of CNNM3, residues Y301-D451, with an N-terminal HA tag) (domain or fragment, UniProt Q8NE01-1 301-451, looked up)
chain: YSDLSKGVLRCRTVEDVLTPLEDCFMLDASTVLDFGVLASIMQSGHTRIPVYEEERSNIVDMLYLKDLAFVDPEDCTPLSTITRFYNHPLHFVFNDTKLDAVLEEFKRGKSHLAIVQKVNNEGEGDPFYEVLGLVTLEDVIEEIIRSEILD
notes: also called purified CBS domain; unlabelled HA-CBS; source: E. coli BL21 Star DE3, purified (Ni-NTA, TEV cleavage, second Ni-NTA, Superdex 200); not shown: HA, N-terminal, kept
Regarding B1, the binding result (with LSSmGFP-PRL-3.C104D [1]; in test [2]) was “binds” throughout.

B2: HA-CBS-mScarlet3 (domain or fragment, UniProt Q8NE01-1 301-451, looked up)
chain: YSDLSKGVLRCRTVEDVLTPLEDCFMLDASTVLDFGVLASIMQSGHTRIPVYEEERSNIVDMLYLKDLAFVDPEDCTPLSTITRFYNHPLHFVFNDTKLDAVLEEFKRGKSHLAIVQKVNNEGEGDPFYEVLGLVTLEDVIEEIIRSEILD
notes: CBS domain of CNNM3, residues Y301-D451, joined to mScarlet3 at its C-terminus by a glycine/serine linker; also called FRET acceptor; source: E. coli BL21 Star DE3, purified (Ni-NTA, TEV cleavage, second Ni-NTA, Superdex 200); not shown: HA, N-terminal, kept; mScarlet3, C-terminal, kept
Regarding B2, the binding result (with LSSmGFP-PRL-3.C104D [3]; in test [2]) was “binds” in each case.

The record behind these values is publication doi:10.1101/2025.05.14.654016, “Phosphatase activity is dispensable for PRL-3-mediated oncogenesis and tumor progression” (bioRxiv, 2025).
